These results are taken from patent US20240309051A1, “[…] T (TFH) CELLS […] TO SARS-COV-2 VIRUS” (priority 2021, published 2024).

The test system of test [1] is T-cell hybridomas expressing TCRs of clonotype 1/2 (clone 1 and clone 2). It counts as cell-based, human.
For test [2], the system named is CD4 positive cells and patient-derived B cells immortalized by EBV infection. Briefly: Restimulation assay of PBMC by S864-882 peptide, human IL-21 ELISA. It is filed as cell-based. The note with it: peptide 1 μg/ml; 24 hr; compared with not stimulated.
Test [3] concerns the target T1, SARS-COV-2 spike (S) protein peptide on HLA-DRA*01:01 / HLA-DRB1*15:01 (human).
T1 peptide: LLTDEMIAQYTSALLAGTI
Nature of the test: activation reporter or marker.

Test [4] concerns the target T2, SARS-COV-2 spike (S) protein peptide on HLA-DRA*01:01 / HLA-DRB1*15:01 (human).
T2 peptide: DEMIAQYTSALLAGT
Briefly: activation reporter or marker.

The target in test [5] is T3, SARS-COV-2 spike (S) protein peptide on HLA-DRA*01:01 / HLA-DRB1*15:01 (human).
T3 peptide: AQYTSALLAGTITSG
Briefly: activation reporter or marker.

Test [6] deals with T4, SARS-COV-2 spike (S) protein peptide on HLA-DRA*01:01 / HLA-DRB1*15:01 (human).
T4 peptide: YTSALLAGTITSGWT
Nature of the test: activation reporter or marker.

Test [7] deals with T5, SARS-COV-2 spike (S) protein peptide on HLA-DRA*01:01 / HLA-DRB1*15:02 (human).
T5 peptide: LLTDEMIAQYTSALLAGTI
Nature of the test: activation reporter or marker.

Test [8] addresses T6, SARS-COV-2 S protein, S867-881 peptide with residue 5 (T) of SEQ ID NO: 13 replaced with alanine peptide on … (human).
T6 peptide: DEMIAQYASALLAGT
Briefly: activation reporter or marker.

Test [9] addresses T7, SARS-COV-2 spike (S) protein peptide on HLA-DRA*01:01 / HLA-DRB1*15:01 (human).
T7 peptide: LPPLLTDEMIAQYTS
Nature of the test: activation reporter or marker.

The target of test [10] is T8, SARS-COV-2 spike (S) protein peptide on HLA-DRA*01:01 / HLA-DRB1*15:01 (human).
T8 peptide: PPLLTDEMIAQYTSA
Nature of the test: activation reporter or marker.

The target of test [11] is T9, SARS-COV-2 spike (S) protein peptide on HLA-DRA*01:01 / HLA-DRB1*15:01 (human).
T9 peptide: PLLTDEMIAQYTSAL
Nature of the test: activation reporter or marker.

For “S864-882: peptide of positions 864-882 of the SARS-CoV-2 S protein, epitope of clones 1 and 2”, the “stimulation of clones 1 and 2, CD69 expression” value in test [1] (APC from an individual who has DRB1*15:02 but not DRB1*15:01) was “able to stimulate both clones 1 and 2”. Also, in test [1] (single peptide 1 μg/ml, 20 hr, in the presence of APC), the “epitope determination by stimulating clones 1 and 2 with single synthesized peptide, CD69” value was “determined as an epitope for both clones 1 and 2”. In addition, the “concentration of IL-21 in the medium” value in [2] is “higher”.

B1: Clone 1 (TCR-017) (TCR)
alpha TRAV12-1 TRAJ12 CDR3: CVVNRGSSYKLIF
beta TRBV11-2 TRBJ2-7 CDR3: CASSQTYEQYF
Regarding B1, the binding result was “recognises” in test [3]; “recognises” in test [4]; “no recognition” in test [5]; “no recognition” in [6]; “recognises” in test [7]; “no recognition” in test [8]. For the same molecule, the binding result in test [9], in test [10] and in test [11] was “no recognition” each time.
